Legend:
Test in all cases: ProtoArray methylated with G9a SET domain
[1] = target: SH3YL1 (clone MGC:12275), G9a-methylated (human) (UniProt Q96HL8)
[2] = target: FTH1 (hit 104), G9a-methylated (human) (UniProt P02794)
[3] = target: UBE2S, G9a-methylated (human) (UniProt Q16763)
[4] = target: BHMT, G9a-methylated (human) (UniProt Q93088)
[5] = target: LYPLAL1, G9a-methylated (human) (UniProt Q5VWZ2)
[6] = target: CDK10, G9a-methylated (human) (UniProt Q15131)
[7] = target: LARP6, G9a-methylated (human) (UniProt Q9BRS8)
LARP6, G9a-methylated (human), sequence (Q9BRS8 other isoform, or with tags, fused parts or gaps limits assumed): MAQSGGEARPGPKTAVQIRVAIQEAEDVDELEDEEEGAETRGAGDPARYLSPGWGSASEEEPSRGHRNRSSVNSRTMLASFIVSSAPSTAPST

[8] = target: CD79A, G9a-methylated (human) (UniProt P11912)
[9] = target: CTXN1, G9a-methylated (human) (UniProt P60606)
[10] = target: SNFT, G9a-methylated (human) (UniProt Q9NR55)
SNFT, G9a-methylated (human), sequence (Q9NR55 whole entry): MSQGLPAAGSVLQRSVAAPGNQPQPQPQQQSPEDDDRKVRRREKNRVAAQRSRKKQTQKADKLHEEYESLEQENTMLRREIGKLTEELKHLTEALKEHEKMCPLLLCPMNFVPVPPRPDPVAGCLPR

[11] = target: PAEP, G9a-methylated (human) (UniProt P09466)
PAEP, G9a-methylated (human), sequence (P09466 19-180 limits assumed): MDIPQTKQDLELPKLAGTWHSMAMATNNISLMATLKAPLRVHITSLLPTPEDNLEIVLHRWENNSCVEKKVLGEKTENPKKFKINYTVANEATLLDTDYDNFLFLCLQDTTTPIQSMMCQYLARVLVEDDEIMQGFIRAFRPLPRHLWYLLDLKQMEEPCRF

[12] = target: CAB39L, G9a-methylated (human) (UniProt Q9H9S4)
CAB39L, G9a-methylated (human), sequence (Q9H9S4 whole entry): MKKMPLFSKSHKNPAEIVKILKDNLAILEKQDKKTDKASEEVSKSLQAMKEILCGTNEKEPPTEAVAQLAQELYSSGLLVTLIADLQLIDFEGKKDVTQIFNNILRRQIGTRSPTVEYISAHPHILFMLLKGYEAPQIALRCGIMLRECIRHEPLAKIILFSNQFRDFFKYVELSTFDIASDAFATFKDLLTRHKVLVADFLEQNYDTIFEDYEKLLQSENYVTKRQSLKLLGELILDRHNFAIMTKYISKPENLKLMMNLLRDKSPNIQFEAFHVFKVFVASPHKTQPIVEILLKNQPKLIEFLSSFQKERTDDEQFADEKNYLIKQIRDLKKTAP

[13] = target: CCL24, G9a-methylated (human) (UniProt O00175)
CCL24, G9a-methylated (human), sequence (O00175 27-119 limits assumed): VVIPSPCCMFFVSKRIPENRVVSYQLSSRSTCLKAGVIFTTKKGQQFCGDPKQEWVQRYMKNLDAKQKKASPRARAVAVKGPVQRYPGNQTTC

[14] = target: KIFC1, G9a-methylated (human) (UniProt Q9BW19)
KIFC1, G9a-methylated (human), sequence (Q9BW19 whole entry): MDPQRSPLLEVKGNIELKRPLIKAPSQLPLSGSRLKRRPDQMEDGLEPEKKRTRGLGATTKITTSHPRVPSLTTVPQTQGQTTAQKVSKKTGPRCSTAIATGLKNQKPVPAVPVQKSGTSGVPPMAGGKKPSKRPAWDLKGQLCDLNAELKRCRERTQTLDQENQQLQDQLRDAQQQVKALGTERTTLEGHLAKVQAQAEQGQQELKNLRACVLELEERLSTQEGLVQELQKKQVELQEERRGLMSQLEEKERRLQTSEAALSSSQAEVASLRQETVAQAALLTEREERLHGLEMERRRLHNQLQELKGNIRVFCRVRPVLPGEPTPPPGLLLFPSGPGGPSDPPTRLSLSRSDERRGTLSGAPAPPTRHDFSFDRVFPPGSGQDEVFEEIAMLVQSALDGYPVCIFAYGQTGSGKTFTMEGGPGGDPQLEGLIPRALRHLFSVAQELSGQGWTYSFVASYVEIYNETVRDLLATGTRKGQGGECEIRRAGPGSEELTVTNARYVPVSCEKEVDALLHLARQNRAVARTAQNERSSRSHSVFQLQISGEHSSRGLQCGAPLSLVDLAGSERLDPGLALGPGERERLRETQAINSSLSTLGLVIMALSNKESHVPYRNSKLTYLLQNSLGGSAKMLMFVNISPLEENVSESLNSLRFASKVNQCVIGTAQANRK

[15] = target: DIRAS1, G9a-methylated (human) (UniProt O95057)
[16] = target: TMEM32, G9a-methylated (human) (UniProt Q8N4V1)
[17] = target: GGPS1, G9a-methylated (human) (UniProt O95749)
[18] = target: RAB7B, G9a-methylated (human) (UniProt Q96AH8)
[19] = target: TEAD4, G9a-methylated (human) (UniProt Q15561)
[20] = target: MAGEH1, G9a-methylated (human) (UniProt Q9H213)
[21] = target: HPCAL4, G9a-methylated (human) (UniProt Q9UM19)
[22] = target: YPEL5, G9a-methylated (human) (UniProt P62699)
[23] = target: DGKA, G9a-methylated (human) (UniProt P23743)
DGKA, G9a-methylated (human), sequence (P23743 whole entry): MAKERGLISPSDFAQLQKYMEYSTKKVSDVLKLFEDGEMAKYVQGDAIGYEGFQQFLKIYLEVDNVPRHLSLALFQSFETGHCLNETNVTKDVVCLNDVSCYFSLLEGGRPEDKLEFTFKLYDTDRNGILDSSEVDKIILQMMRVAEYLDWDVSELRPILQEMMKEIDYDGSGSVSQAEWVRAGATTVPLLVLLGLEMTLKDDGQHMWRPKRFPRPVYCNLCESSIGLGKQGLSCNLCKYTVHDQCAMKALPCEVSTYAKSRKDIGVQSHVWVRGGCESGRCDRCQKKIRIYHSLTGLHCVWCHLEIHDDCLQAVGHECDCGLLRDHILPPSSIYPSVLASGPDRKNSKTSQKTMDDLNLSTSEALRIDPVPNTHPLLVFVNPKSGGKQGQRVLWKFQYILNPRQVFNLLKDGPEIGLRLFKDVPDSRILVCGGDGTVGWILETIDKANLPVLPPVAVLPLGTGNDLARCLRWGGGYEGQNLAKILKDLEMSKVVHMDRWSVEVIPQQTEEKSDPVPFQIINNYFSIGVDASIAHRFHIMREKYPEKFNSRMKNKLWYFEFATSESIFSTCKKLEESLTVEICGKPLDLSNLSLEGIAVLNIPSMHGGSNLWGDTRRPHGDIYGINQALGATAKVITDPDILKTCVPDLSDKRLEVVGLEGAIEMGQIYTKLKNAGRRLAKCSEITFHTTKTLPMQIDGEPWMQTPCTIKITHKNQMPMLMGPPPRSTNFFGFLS

[24] = target: CA13, G9a-methylated (human) (UniProt Q8N1Q1)
[25] = target: SEC22B, G9a-methylated (human) (UniProt O75396)
[26] = target: GFOD1, G9a-methylated (human) (UniProt Q9NXC2)
[27] = target: NME1, G9a-methylated (human) (UniProt P15531)
[28] = target: CMTM3, G9a-methylated (human) (UniProt Q96MX0)
[29] = target: Magmas, G9a-methylated (human) (UniProt Q9Y3D7)
Magmas, G9a-methylated (human), sequence (Q9Y3D7 whole entry): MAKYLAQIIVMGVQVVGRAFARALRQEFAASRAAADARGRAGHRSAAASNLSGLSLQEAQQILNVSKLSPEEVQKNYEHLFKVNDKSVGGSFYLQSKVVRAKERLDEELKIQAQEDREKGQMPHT

[30] = target: SMAP1, G9a-methylated (human) (UniProt Q8IYB5)
[31] = target: STK17B, G9a-methylated (human) (UniProt O94768)
[32] = target: ACSL4, G9a-methylated (human) (UniProt O60488)
[33] = target: SMYD3, G9a-methylated (human) (UniProt Q9H7B4)
[34] = target: KCTD7, G9a-methylated (human) (UniProt Q96MP8)
KCTD7, G9a-methylated (human), sequence (Q96MP8 whole entry): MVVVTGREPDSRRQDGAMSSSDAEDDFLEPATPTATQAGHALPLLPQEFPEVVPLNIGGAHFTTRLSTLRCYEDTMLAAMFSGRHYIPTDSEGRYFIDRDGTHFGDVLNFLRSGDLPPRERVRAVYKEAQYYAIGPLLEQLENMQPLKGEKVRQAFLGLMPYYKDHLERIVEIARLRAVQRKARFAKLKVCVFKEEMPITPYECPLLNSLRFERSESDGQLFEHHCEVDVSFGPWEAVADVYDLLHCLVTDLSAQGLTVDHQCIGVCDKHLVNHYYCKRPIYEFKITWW

[35] = target: WDR45, G9a-methylated (human) (UniProt Q9Y484)
[36] = target: GAL, G9a-methylated (human) (UniProt P22466)
GAL, G9a-methylated (human), sequence (P22466 20-123 limits assumed): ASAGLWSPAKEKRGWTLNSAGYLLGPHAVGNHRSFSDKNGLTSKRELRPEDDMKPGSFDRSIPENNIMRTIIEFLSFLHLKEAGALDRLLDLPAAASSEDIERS

[37] = target: RDH11, G9a-methylated (human) (UniProt Q8TC12)
RDH11, G9a-methylated (human), sequence (Q8TC12 whole entry): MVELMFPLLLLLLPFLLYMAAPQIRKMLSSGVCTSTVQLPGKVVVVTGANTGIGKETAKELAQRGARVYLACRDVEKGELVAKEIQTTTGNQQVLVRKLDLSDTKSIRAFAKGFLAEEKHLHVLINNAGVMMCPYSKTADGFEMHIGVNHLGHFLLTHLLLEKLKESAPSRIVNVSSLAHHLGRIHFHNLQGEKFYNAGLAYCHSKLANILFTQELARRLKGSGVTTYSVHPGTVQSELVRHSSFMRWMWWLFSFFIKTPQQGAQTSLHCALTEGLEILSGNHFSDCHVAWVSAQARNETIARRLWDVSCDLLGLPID

[38] = target: MGC10433 (RNA-binding protein 42), G9a-methylated (human) (UniProt Q9BTD8)
[39] = target: C12orf23, G9a-methylated (human) (UniProt Q8WUH6)
[40] = target: C1QTNF6, G9a-methylated (human) (UniProt Q9BXI9)
[41] = target: C10orf83, G9a-methylated (human) (UniProt Q8NDC4)
[42] = target: CNTD1, G9a-methylated (human) (UniProt Q8N815)
[43] = target: CRYZL1, G9a-methylated (human) (UniProt O95825)
[44] = target: ZNF695, G9a-methylated (human) (UniProt Q8IW36)
[45] = target: GNPTAB, G9a-methylated (human) (UniProt Q3T906)
GNPTAB, G9a-methylated (human), sequence (Q3T906 whole entry): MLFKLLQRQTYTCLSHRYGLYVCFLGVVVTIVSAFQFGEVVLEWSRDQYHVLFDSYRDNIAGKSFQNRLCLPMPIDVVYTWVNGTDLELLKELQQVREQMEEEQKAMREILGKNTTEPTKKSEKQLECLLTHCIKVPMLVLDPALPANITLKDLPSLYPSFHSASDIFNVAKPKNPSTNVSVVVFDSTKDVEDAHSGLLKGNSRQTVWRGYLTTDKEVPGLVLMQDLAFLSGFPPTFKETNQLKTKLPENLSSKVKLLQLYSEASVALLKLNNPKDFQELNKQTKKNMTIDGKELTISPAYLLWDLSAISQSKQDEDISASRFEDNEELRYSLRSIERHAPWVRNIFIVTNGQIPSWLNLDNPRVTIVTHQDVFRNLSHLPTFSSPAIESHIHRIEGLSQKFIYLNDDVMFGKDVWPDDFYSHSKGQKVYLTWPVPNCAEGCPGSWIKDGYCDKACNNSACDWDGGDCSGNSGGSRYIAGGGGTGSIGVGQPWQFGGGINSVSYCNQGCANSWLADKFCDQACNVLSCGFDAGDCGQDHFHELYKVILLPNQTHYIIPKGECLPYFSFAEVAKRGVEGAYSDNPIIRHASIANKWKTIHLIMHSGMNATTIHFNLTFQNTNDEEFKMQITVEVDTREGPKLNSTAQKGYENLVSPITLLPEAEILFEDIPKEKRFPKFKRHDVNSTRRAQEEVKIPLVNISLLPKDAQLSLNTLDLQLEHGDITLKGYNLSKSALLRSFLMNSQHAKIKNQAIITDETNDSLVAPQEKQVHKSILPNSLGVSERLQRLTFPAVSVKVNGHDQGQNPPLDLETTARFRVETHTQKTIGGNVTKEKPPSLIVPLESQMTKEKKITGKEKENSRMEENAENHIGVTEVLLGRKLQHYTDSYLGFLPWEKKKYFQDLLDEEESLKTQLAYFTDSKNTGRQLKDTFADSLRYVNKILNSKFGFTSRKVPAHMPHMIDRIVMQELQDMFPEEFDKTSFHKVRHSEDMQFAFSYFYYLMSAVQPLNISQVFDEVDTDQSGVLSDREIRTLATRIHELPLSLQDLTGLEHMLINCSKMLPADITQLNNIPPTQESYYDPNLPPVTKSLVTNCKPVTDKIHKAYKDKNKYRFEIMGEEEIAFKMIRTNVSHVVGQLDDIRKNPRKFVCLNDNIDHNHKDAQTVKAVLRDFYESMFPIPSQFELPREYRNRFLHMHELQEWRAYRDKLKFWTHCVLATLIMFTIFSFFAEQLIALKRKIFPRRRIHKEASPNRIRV

SH3YL1 (clone MGC:12275), G9a-methylated (human), sequence (Q96HL8 whole entry): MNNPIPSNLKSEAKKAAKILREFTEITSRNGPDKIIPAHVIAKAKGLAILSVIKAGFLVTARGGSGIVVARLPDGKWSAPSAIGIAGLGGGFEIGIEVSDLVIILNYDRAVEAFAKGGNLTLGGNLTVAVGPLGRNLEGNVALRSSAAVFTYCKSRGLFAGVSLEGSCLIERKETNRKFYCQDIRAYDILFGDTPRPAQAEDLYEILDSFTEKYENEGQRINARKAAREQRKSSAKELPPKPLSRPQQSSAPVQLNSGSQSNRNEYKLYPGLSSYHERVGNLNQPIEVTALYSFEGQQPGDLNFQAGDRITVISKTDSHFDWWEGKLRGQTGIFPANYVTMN
LYPLAL1, G9a-methylated (human), sequence (Q5VWZ2 whole entry): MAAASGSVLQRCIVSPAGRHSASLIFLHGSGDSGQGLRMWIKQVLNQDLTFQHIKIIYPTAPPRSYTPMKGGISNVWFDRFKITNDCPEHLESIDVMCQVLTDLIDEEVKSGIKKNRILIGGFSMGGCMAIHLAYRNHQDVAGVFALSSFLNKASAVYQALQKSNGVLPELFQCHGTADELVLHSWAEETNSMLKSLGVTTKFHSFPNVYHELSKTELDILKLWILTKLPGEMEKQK

G9a Average SNR [1]: 12.9
G9a Average SNR [2]: 30.4
G9a Average SNR [3]: 25
G9a Average SNR [4]: 16.6
G9a Average SNR [5]: 15.7
G9a Average SNR [6]: 13.6
G9a Average SNR [7]: 15.6
G9a Average SNR [8]: 13.8
G9a Average SNR [9]: 19.7
G9a Average SNR [10]: 18.1
G9a Average SNR [11]: 17.5
G9a Average SNR [12]: 14.6
G9a Average SNR [13]: 34.5
G9a Average SNR [14]: 63.2
G9a Average SNR [15]: 29.2
G9a Average SNR [16]: 13.6
G9a Average SNR [17]: 12.3
G9a Average SNR [18]: 12.7
G9a Average SNR [19]: 16.9
G9a Average SNR [20]: 44
G9a Average SNR [21]: 11.5
G9a Average SNR [22]: 13.4
G9a Average SNR [23]: 15.5
G9a Average SNR [24]: 13
G9a Average SNR [25]: 12.6
G9a Average SNR [26]: 16.4
G9a Average SNR [27]: 15.2
G9a Average SNR [28]: 14.1
G9a Average SNR [29]: 13.9
G9a Average SNR [30]: 21.5
G9a Average SNR [31]: 14.4
G9a Average SNR [32]: 13.5
G9a Average SNR [33]: 17.6
G9a Average SNR [34]: 14.7
G9a Average SNR [35]: 16.6
G9a Average SNR [36]: 13.1
G9a Average SNR [37]: 26.6
G9a Average SNR [38]: 14.1
G9a Average SNR [39]: 12.7
G9a Average SNR [40]: 16.4
G9a Average SNR [41]: 15.4
G9a Average SNR [42]: 12.7
G9a Average SNR [43]: 11.2
G9a Average SNR [44]: 20.3
G9a Average SNR [45]: 16.5
Substance: 3× Flag-3×MBT (designed binder)

Source: patent US20140274782A1, “AFFINITY REAGENTS AND METHODS FOR DETECTION, PURIFICATION, AND PROTEOMIC ANALYSIS OF METHYLATED PROTEINS” (The Board of Trustees of the Leland Stanford Junior …, priority 2013, published 2014)
